In the supplement of paper PMC10567573:

B1: TPPP (parent)
chain: LCKDCQVIDGRNVTVTDVDIVFSK
B2: CSNK1G1 (parent)
chain: GSLPWQGLKADTLKERYQKIGDTK

Variants of: B1
Assay: protein stability index of a GFP-peptide fusion (GPS, HEK-293T) (PSI 1-6); higher = more stable
Conditions: c terminus: a fixed tail appended
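Further: lentivirally expressed fusions sorted by FACS into six bins by GFP to DsRed ratio, PSI derived from sequencing read proportions per bin multiplied by bin number.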

Row | Variant | protein stability index
1 | LCKDCQVIDGRNVTVTDCDIVFSK [V18C] | 2.48
2 | LCKDCQVIDGRNVHVTDVDIVFSK [T14H] | 2.61
3 | LCKDCQVIDGRNVTVTDVDIVFSN [K24N] | 3.05
4 | LCEDCQVIDGRNVTVTDVDIVFSK [K3E] | 3.21

Variants of: B2
Assay: as above
Conditions: c terminus: a fixed tail appended

Row | Variant | protein stability index
5 | GSLPWQGLKADTLKERYQKIGDGK [T23G] | 4.34
6 | GSLPWQGLKADTLKERYQKIGDRK [T23R] | 3.84
7 | GSLPWQGLKADTLKERYQKIGDEK [T23E] | 4.68
8 | GSLPWQGLKADTLKERYQKIGDQK [T23Q] | 3.96
9 | GSLPWQGLKADTLKERYQKIGDWK [T23W] | 2.78
10 | GSLPWQGLKADTLKERYQKIGDIK [T23I] | 3.81
11 | GSLPWQGLKADTLKERYQKIGDLK [T23L] | 3.82
12 | GSLPWQGLKADTLKERYQKIGDCK [T23C] | 3.4
13 | GSLPWQGLKADTLKERYQKIGDYK [T23Y] | 3.36
14 | GSLPWQGLKADTLKERYQKIGDAK [T23A] | 4.46
15 | GSLPWQGLKADTLKERYQKIGDMK [T23M] | 3.97
16 | GSLPWQGLKADTLKERYQKIGDSK [T23S] | 4.53
17 | GSLPWQGLKADTLKERYQKIGDHK [T23H] | 4.08
18 | GSLPWQGLKADTLKERYQKIGDFK [T23F] | 3.38
19 | GSLPWQGLKADTLKERYQKIGDDK [T23D] | 4.55
20 | GSLPWQGLKADTLKERYQKIGDVK [T23V] | 4.01
21 | GSLPWQGLKADTLKERYQKIGDNK [T23N] | 3.92
22 | GSLPWQGLKADTLKERYQKIGDKK [T23K] | 4.74
23 | GSLPWQGLKADTLKERYQKIGDPK [T23P] | 3.91
24 | GSLPWQGLKADTLKERYQCIGDTK [K19C] | 3.56
25 | GSLPWQGLKADTLKERYQFIGDTK [K19F] | 3.05
26 | GSLPWQGLKADTLKERYQEIGDTK [K19E] | 4.45
27 | GSLPWQGLKADTLKERYQVIGDTK [K19V] | 3.83

Row | Variant | protein stability index
28 | GSLPWQGLKADTLKERYQLIGDTK [K19L] | 3.74
29 | GSLPWQGLKADTLKERYQWIGDTK [K19W] | 2.83
30 | GSLPWQGLKADTLKERYQRIGDTK [K19R] | 3.75
31 | GSLPWQGLKADTLKERYQNIGDTK [K19N] | 4.35
32 | GSLPWQGLKADTLKERYQYIGDTK [K19Y] | 3.86
33 | GSLPWQGLKADTLKERYQHIGDTK [K19H] | 4.24
34 | GSLPWQGLKADTLKERYQGIGDTK [K19G] | 4.17
35 | GSLPWQGLKADTLKERYQSIGDTK [K19S] | 3.95
36 | GSLPWQGLKADTLKERYQPIGDTK [K19P] | 3.95
37 | GSLPWQGLKADTLKERYQTIGDTK [K19T] | 4.3
38 | GSLPWQGLKADTLKERYQAIGDTK [K19A] | 3.94
39 | GSLPWQGLKADTLKERYQMIGDTK [K19M] | 3.68
40 | GSLPWQGLKADTLKERYQQIGDTK [K19Q] | 4.8
41 | GSLPWQGLKADTLKERYQIIGDTK [K19I] | 3.54
42 | GSLPWQGLKADTLKERYQDIGDTK [K19D] | 4.67
43 | GSLPWQGLKADTLKEYYQKIGDTK [R16Y] | 4.01
44 | GSLPWQGLKADTLKELYQKIGDTK [R16L] | 4.11
45 | GSLPWQGLKADTLKEIYQKIGDTK [R16I] | 3.26
46 | GSLPWQGLKADTLKECYQKIGDTK [R16C] | 4.29
47 | GSLPWQGLKADTLKEGYQKIGDTK [R16G] | 4.89
48 | GSLPWQGLKADTLKETYQKIGDTK [R16T] | 4.07
49 | GSLPWQGLKADTLKESYQKIGDTK [R16S] | 4.71
50 | GSLPWQGLKADTLKEDYQKIGDTK [R16D] | 4.54

Row | Variant | protein stability index
51 | GSLPWQGLKADTLKEAYQKIGDTK [R16A] | 4.29
52 | GSLPWQGLKADTLKEPYQKIGDTK [R16P] | 4.37
53 | GSLPWQGLKADTLKEQYQKIGDTK [R16Q] | 4.44
54 | GSLPWQGLKADTLKEHYQKIGDTK [R16H] | 4.35
55 | GSLPWQGLKADTLKEKYQKIGDTK [R16K] | 4.23
56 | GSLPWQGLKADTLKEWYQKIGDTK [R16W] | 2.99
57 | GSLPWQGLKADTLKENYQKIGDTK [R16N] | 4.68
58 | GSLPWQGLKADTLKEVYQKIGDTK [R16V] | 4.25
59 | GSLPWQGLKADTLKEEYQKIGDTK [R16E] | 4.69
60 | GSLPWQGLKADTLKEMYQKIGDTK [R16M] | 4.11
61 | GSLPWQGLKADTLKEFYQKIGDTK [R16F] | 3.98
62 | GSLPWQGLKADTLKERYQKRGDTK [I20R] | 4.2
63 | GSLPWQGLKADTLKERYQKHGDTK [I20H] | 4.47
64 | GSLPWQGLKADTLKERYQKAGDTK [I20A] | 4.67
65 | GSLPWQGLKADTLKERYQKFGDTK [I20F] | 4.26
66 | GSLPWQGLKADTLKERYQKQGDTK [I20Q] | 4.36
67 | GSLPWQGLKADTLKERYQKLGDTK [I20L] | 3.86
68 | GSLPWQGLKADTLKERYQKKGDTK [I20K] | 4.33
69 | GSLPWQGLKADTLKERYQKDGDTK [I20D] | 4.86
70 | GSLPWQGLKADTLKERYQKSGDTK [I20S] | 4.65
71 | GSLPWQGLKADTLKERYQKCGDTK [I20C] | 4.35
72 | GSLPWQGLKADTLKERYQKWGDTK [I20W] | 3.62
73 | GSLPWQGLKADTLKERYQKEGDTK [I20E] | 5.24

Row | Variant | protein stability index
74 | GSLPWQGLKADTLKERYQKYGDTK [I20Y] | 4.29
75 | GSLPWQGLKADTLKERYQKNGDTK [I20N] | 4.62
76 | GSLPWQGLKADTLKERYQKVGDTK [I20V] | 4.3
77 | GSLPWQGLKADTLKERYQKGGDTK [I20G] | 5
78 | GSLPWQGLKADTLKERYQKMGDTK [I20M] | 4.53
79 | GSLPWQGLKADTLKERYQKTGDTK [I20T] | 4.46
80 | GSLPWQGLKADTLKERYQKPGDTK [I20P] | 4.75
81 | GSLPWQGLKADTLKERYRKIGDTK [Q18R] | 3.96
82 | GSLPWQGLKADTLKERYCKIGDTK [Q18C] | 3.76
83 | GSLPWQGLKADTLKERYEKIGDTK [Q18E] | 4.54
84 | GSLPWQGLKADTLKERYLKIGDTK [Q18L] | 3.91
85 | GSLPWQGLKADTLKERYFKIGDTK [Q18F] | 2.91
86 | GSLPWQGLKADTLKERYPKIGDTK [Q18P] | 4.66
87 | GSLPWQGLKADTLKERYNKIGDTK [Q18N] | 4.11
88 | GSLPWQGLKADTLKERYWKIGDTK [Q18W] | 3.34
89 | GSLPWQGLKADTLKERYYKIGDTK [Q18Y] | 3.74
90 | GSLPWQGLKADTLKERYSKIGDTK [Q18S] | 4.35
91 | GSLPWQGLKADTLKERYKKIGDTK [Q18K] | 3.62
92 | GSLPWQGLKADTLKERYHKIGDTK [Q18H] | 4.09
93 | GSLPWQGLKADTLKERYVKIGDTK [Q18V] | 3.64
94 | GSLPWQGLKADTLKERYGKIGDTK [Q18G] | 4.09
